Our source for the peptide exchange yield values is patent publication US20200040057A1 (IMMATICS BIOTECHNOLOGIES, published 2020).

To fix the notation:
B1: RPDVVRTLL (peptide)
peptide: RPDVVRTLL
B2: APRLALDPDAL (peptide)
peptide: APRLALDPDAL
B3: APARPAAAF (peptide)
peptide: APARPAAAF
B4: SPRSNPVRL (peptide)
peptide: SPRSNPVRL
B5: SPMEAELVRRIL (peptide)
peptide: SPMEAELVRRIL
B6: APMHIDRNIL (peptide)
peptide: APMHIDRNIL
B7: LPQLKPAL (peptide)
peptide: LPQLKPAL
B8: RPILKEQSSSSF (peptide)
peptide: RPILKEQSSSSF
B9: RPPPPCIAL (peptide)
peptide: RPPPPCIAL
B10: APPPPPPPF (peptide)
peptide: APPPPPPPF
B11: DVIDDIISL (peptide)
peptide: DVIDDIISL
B12: MPVDSFNSM (peptide)
peptide: MPVDSFNSM
B13: RLRDYISSL (peptide)
peptide: RLRDYISSL
B14: VPKPAIPSSSVL (peptide)
peptide: VPKPAIPSSSVL
B15: YPLSLALHF (peptide)
peptide: YPLSLALHF
B16: RVIQGTTTL (peptide)
peptide: RVIQGTTTL
B17: APSRLLEL (peptide)
peptide: APSRLLEL
B18: LPIARVLTV (peptide)
peptide: LPIARVLTV
B19: MPYNSAHHCVV (peptide)
peptide: MPYNSAHHCVV
B20: SPGWAQTQL (peptide)
peptide: SPGWAQTQL
B21: SPVPSHWMVAL (peptide)
peptide: SPVPSHWMVAL
B22: LPRSPPLKVL (peptide)
peptide: LPRSPPLKVL
B23: LPNTGRIGQLL (peptide)
peptide: LPNTGRIGQLL
B24: KPKAVKPKAA (peptide)
peptide: KPKAVKPKAA
B25: MVLGIGPVL (peptide)
peptide: MVLGIGPVL
B26: VPSHWMVAL (peptide)
peptide: VPSHWMVAL
B27: TPHGITDIL (peptide)
peptide: TPHGITDIL
B28: LVQSSRSEV (peptide)
peptide: LVQSSRSEV
B29: RPQPGWRESL (peptide)
peptide: RPQPGWRESL
B30: APVVFPAL (peptide)
peptide: APVVFPAL
B31: HPRWIEPTVM (peptide)
peptide: HPRWIEPTVM
B32: KPGFNISIL (peptide)
peptide: KPGFNISIL
B33: MPVDSFNSML (peptide)
peptide: MPVDSFNSML
B34: SPITLQAL (peptide)
peptide: SPITLQAL
B35: LPAPLRISL (peptide)
peptide: LPAPLRISL
B36: LPRAGGAF (peptide)
peptide: LPRAGGAF
B37: RPTHPLRSF (peptide)
peptide: RPTHPLRSF
B38: RPFSAIAEL (peptide)
peptide: RPFSAIAEL
B39: VPMPGVQAV (peptide)
peptide: VPMPGVQAV
B40: LPALKEEAF (peptide)
peptide: LPALKEEAF
B41: SPAAPLSPASSL (peptide)
peptide: SPAAPLSPASSL
B42: GPRTTQSSVL (peptide)
peptide: GPRTTQSSVL
B43: NPRSPPATM (peptide)
peptide: NPRSPPATM
B44: RPDSRLLEL (peptide)
peptide: RPDSRLLEL
B45: RPSAPRGPP (peptide)
peptide: RPSAPRGPP
B46: AVRLPTPNL (peptide)
peptide: AVRLPTPNL
B47: SPLLMQRTL (peptide)
peptide: SPLLMQRTL
B48: VPYAAQAAL (peptide)
peptide: VPYAAQAAL
B49: FPYDKPLIM (peptide)
peptide: FPYDKPLIM
B50: IPTSRVITL (peptide)
peptide: IPTSRVITL
B51: RPYQDAPVA (peptide)
peptide: RPYQDAPVA
B52: FPAPPAHWF (peptide)
peptide: FPAPPAHWF
B53: RPVWDVRSA (peptide)
peptide: RPVWDVRSA
B54: KPYEGRVEI (peptide)
peptide: KPYEGRVEI
B55: RPLDTFRVL (peptide)
peptide: RPLDTFRVL
B56: SPIPRPLFL (peptide)
peptide: SPIPRPLFL
B57: SPYAGSTAF (peptide)
peptide: SPYAGSTAF
B58: TPISNTGVL (peptide)
peptide: TPISNTGVL
B59: LPRAGGAFLM (peptide)
peptide: LPRAGGAFLM
B60: SPSTSRTPLLSSL (peptide)
peptide: SPSTSRTPLLSSL
B61: GPVPSPLAL (peptide)
peptide: GPVPSPLAL
B62: VPLSSYVSI (peptide)
peptide: VPLSSYVSI
B63: SPFSGGPVSF (peptide)
peptide: SPFSGGPVSF
B64: QPQCSTHIL (peptide)
peptide: QPQCSTHIL
B65: SPIIHSILL (peptide)
peptide: SPIIHSILL
B66: LPRAFLQSL (peptide)
peptide: LPRAFLQSL
B67: RPVLTASSF (peptide)
peptide: RPVLTASSF
B68: APLPRPGAV (peptide)
peptide: APLPRPGAV

For the experiment, the target named is HLA-B*07 (human). In words: UV peptide exchange ELISA; ++++ = yield >75%. Background: An ELISA detects its analyte on a solid surface through an enzyme-linked reagent.
The molecule B1 registered a peptide exchange yield of over 75%.
Consider B2, for which the peptide exchange yield is over 75%.
With B3 the figure was over 75%; with B4, over 75%; with B5, over 75%.
As for B6, the figure is over 75%; as for B7, over 75%; as for B8, over 75%.
For the molecule B9, the peptide exchange yield was over 75%.
Molecule B10 came in with a peptide exchange yield of over 75%.
Take B11: the peptide exchange yield was over 75%.
As for B12, the figure is over 75%; as for B13, over 75%.
As for B14, the figure is over 75%; as for B15, over 75%; as for B16, over 75%.
As for B17, the figure is over 75%; as for B18, over 75%.
As for B19, the peptide exchange yield was over 75%.
B20: the peptide exchange yield is over 75%.
Take B21: the peptide exchange yield is over 75%.
With B22 the figure was over 75%; with B23, over 75%.
The molecule B24 registered a peptide exchange yield of over 75%.
In the case of B25, the peptide exchange yield is over 75%.
In turn, B26 came in with a peptide exchange yield of over 75%.
With B27 the figure was over 75%; with B28, over 75%.
As for B29, the figure is over 75%; as for B30, over 75%; as for B31, over 75%.
With B32 the figure was over 75%.
As to B33, the peptide exchange yield is over 75%.
Molecule B34 registered a peptide exchange yield of over 75%.
With B35 the figure was over 75%.
As for B36, the figure is over 75%; as for B37, over 75%; as for B38, over 75%.
With B39 the figure was over 75%; with B40, over 75%.
On to B41, for which the peptide exchange yield is over 75%.
As for B42, the figure is over 75%; as for B43, over 75%; as for B44, over 75%.
Take B45: the peptide exchange yield was over 75%.
On to B46, for which the peptide exchange yield was over 75%.
B47 returned a peptide exchange yield of over 75%.
Take B48: the peptide exchange yield is over 75%.
As for B49, the figure is over 75%; as for B50, over 75%; as for B51, over 75%.
With B52 the figure was over 75%; with B53, over 75%.
Consider B54, for which the peptide exchange yield is over 75%.
As for B55, the figure is over 75%; as for B56, over 75%.
Molecule B57 yielded a peptide exchange yield of over 75%.
Turning to B58, the peptide exchange yield was over 75%.
B59 yielded a peptide exchange yield of over 75%.
With B60 the figure was over 75%; with B61, over 75%.
As for B62, the figure is over 75%; as for B63, over 75%.
With B64 the figure was over 75%; with B65, over 75%.
B66 came in with a peptide exchange yield of over 75%.
With B67 the figure was over 75%; with B68, over 75%.
